Laboratory results taken from patent publication US20230002480A1.

Legend:
Test in all cases: cell-based or functional assay
[1] = target: HIV-1 Env of pseudovirus Ce703010054_2A2 (HIV-1)
[2] = target: HIV-1 Env of pseudovirus THRO4156.18 (HIV-1)
[3] = target: HIV-1 Env of pseudovirus Ce704809221_1B3 (HIV-1)
[4] = target: HIV-1 Env of pseudovirus 1006_11_C3_1601 (HIV-1)
[5] = target: HIV-1 Env of pseudovirus SC05_8C11_2344 (HIV-1)
[6] = target: HIV-1 Env of pseudovirus Du156.12 (HIV-1)
[7] = target: HIV-1 Env of pseudovirus QH0692.42 (HIV-1)
[8] = target: HIV-1 Env of pseudovirus Ce1172_H1 (HIV-1)
[9] = target: HIV-1 Env of pseudovirus Du422.1 (HIV-1)
[10] = target: HIV-1 Env of pseudovirus ZM233M.PB6 (HIV-1)
[11] = target: HIV-1 Env of pseudovirus PVO.4 (HIV-1)
[12] = target: HIV-1 Env of pseudovirus Q769.d22 (HIV-1)
[13] = target: HIV-1 Env of pseudovirus ZM249M.PL1 (HIV-1)
[14] = target: HIV-1 Env of pseudovirus SC422661.8 (HIV-1)
[15] = target: HIV-1 Env of pseudovirus 1394C9G1(Rev-) (HIV-1)
[16] = target: HIV-1 Env of pseudovirus ZM214M.PL15 (HIV-1)
[17] = target: HIV-1 Env of pseudovirus 191084 B7-19 (HIV-1)
[18] = target: HIV-1 Env of pseudovirus 246F C1G (HIV-1)
[19] = target: HIV-1 Env of pseudovirus Ce0393_C3 (HIV-1)
[20] = target: HIV-1 Env of pseudovirus 1056_10_TA11_1826 (HIV-1)
[21] = target: HIV-1 Env of pseudovirus WITO4160.33 (HIV-1)

## PG16 (antibody)
[1]
  IC50, titer in TZM.bl cells: 0.008 µg/mL
  IC80, titer in TZM.bl cells: 0.053 µg/mL
[2]
  IC50, titer in TZM.bl cells: 6.83 µg/mL
  IC80, titer in TZM.bl cells: > 50 µg/mL
[3]
  IC50, titer in TZM.bl cells: 0.021 µg/mL
  IC80, titer in TZM.bl cells: 0.116 µg/mL
[4]
  IC50, titer in TZM.bl cells: > 50 µg/mL
  IC80, titer in TZM.bl cells: > 50 µg/mL
[5]
  IC50, titer in TZM.bl cells: 0.07 µg/mL
  IC80, titer in TZM.bl cells: 1.62 µg/mL
[6]
  IC50, titer in TZM.bl cells: 0.006 µg/mL
  IC80, titer in TZM.bl cells: 0.026 µg/mL
[7]
  IC50, titer in TZM.bl cells: > 50 µg/mL
  IC80, titer in TZM.bl cells: > 50 µg/mL
[8]
  IC50, titer in TZM.bl cells: 0.007 µg/mL
  IC80, titer in TZM.bl cells: 0.037 µg/mL
[9]
  IC50, titer in TZM.bl cells: 0.261 µg/mL
  IC80, titer in TZM.bl cells: 33.8 µg/mL
[10]
  IC50, titer in TZM.bl cells: 0.002 µg/mL
  IC80, titer in TZM.bl cells: 0.006 µg/mL
[11]
  IC50, titer in TZM.bl cells: 15.3 µg/mL
  IC80, titer in TZM.bl cells: > 50 µg/mL
[12]
  IC50, titer in TZM.bl cells: 0.005 µg/mL
  IC80, titer in TZM.bl cells: 0.018 µg/mL
[13]
  IC50, titer in TZM.bl cells: 0.127 µg/mL
  IC80, titer in TZM.bl cells: 18.1 µg/mL
[14]
  IC50, titer in TZM.bl cells: 0.858 µg/mL
  IC80, titer in TZM.bl cells: > 50 µg/mL
[15]
  IC50, titer in TZM.bl cells: 0.008 µg/mL
  IC80, titer in TZM.bl cells: 0.056 µg/mL
[16]
  IC50, titer in TZM.bl cells: > 50 µg/mL
  IC80, titer in TZM.bl cells: > 50 µg/mL
[17]
  IC50, titer in TZM.bl cells: 0.024 µg/mL
  IC80, titer in TZM.bl cells: 0.238 µg/mL
[18]
  IC50, titer in TZM.bl cells: > 50 µg/mL
  IC80, titer in TZM.bl cells: > 50 µg/mL
[19]
  IC50, titer in TZM.bl cells: 0.002 µg/mL
  IC80, titer in TZM.bl cells: 0.006 µg/mL
[20]
  IC50, titer in TZM.bl cells: 0.315 µg/mL
  IC80, titer in TZM.bl cells: 1.95 µg/mL
[21]
  IC50, titer in TZM.bl cells: 0.002 µg/mL
  IC80, titer in TZM.bl cells: 0.012 µg/mL

## N49P9.1 (antibody)
[1]
  IC50: 0.433 µg/mL
  IC80: 3.18 µg/mL
  MPI: 96
[2]
  IC50: 1.65 µg/mL
  IC80: 9.44 µg/mL
  MPI: 99
[3]
  IC50: 0.162 µg/mL
  IC80: 0.661 µg/mL
  MPI: 100
[4]
  IC50: 0.135 µg/mL
  IC80: 0.448 µg/mL
  MPI: 100
[5]
  IC50: 1.3 µg/mL
  IC80: 4.39 µg/mL
  MPI: 100
[6]
  IC50: 0.066 µg/mL
  IC80: 0.252 µg/mL
  MPI: 100
[7]
  IC50: 0.107 µg/mL
  IC80: 0.709 µg/mL
  MPI: 100
[8]
  IC50: > 50 µg/mL
  IC80: > 50 µg/mL
  MPI: 42
[9]
  IC50: > 50 µg/mL
  IC80: > 50 µg/mL
  MPI: 17
[10]
  IC50: > 50 µg/mL
  IC80: > 50 µg/mL
  MPI: 6
[11]
  IC50: 0.181 µg/mL
  IC80: 0.874 µg/mL
  MPI: 100
[12]
  IC50: 0.039 µg/mL
  IC80: 0.148 µg/mL
  MPI: 100
[13]
  IC50: 0.206 µg/mL
  IC80: 1.92 µg/mL
  MPI: 95
[14]
  IC50: 0.127 µg/mL
  IC80: 0.468 µg/mL
  MPI: 100
[15]
  IC50: > 50 µg/mL
  IC80: > 50 µg/mL
  MPI: 6
[16]
  IC50: 0.561 µg/mL
  IC80: 2.96 µg/mL
  MPI: 100
[18]
  IC50: > 50 µg/mL
  IC80: > 50 µg/mL
  MPI: 11
[19]
  IC50: 0.284 µg/mL
  IC80: 1.22 µg/mL
  MPI: 100
[20]
  IC50: 0.617 µg/mL
  IC80: 3.03 µg/mL
  MPI: 100
[21]
  IC50: 0.051 µg/mL
  IC80: 0.241 µg/mL
  MPI: 100
